Reference: US20080160008

Tests used:
[1] = target: Aβ1-42 (fresh, nonaggregated synthetic peptide, rPeptide) (UniProt P05067)
[2] = target: Aβ1-40 (UniProt P05067)
[3] = target: high-molecular-weight (MW) Aβ assemblies (UniProt P05067)
[4] = target: Aβ1-38 (UniProt P05067)
[5] = target: fibrillar Aβ1-42 (UniProt P05067)
[6] = target: protofibrillar Aβ1-42 (UniProt P05067)
protofibrillar Aβ1-42, sequence (P05067 whole entry, looked up, tested part not stated): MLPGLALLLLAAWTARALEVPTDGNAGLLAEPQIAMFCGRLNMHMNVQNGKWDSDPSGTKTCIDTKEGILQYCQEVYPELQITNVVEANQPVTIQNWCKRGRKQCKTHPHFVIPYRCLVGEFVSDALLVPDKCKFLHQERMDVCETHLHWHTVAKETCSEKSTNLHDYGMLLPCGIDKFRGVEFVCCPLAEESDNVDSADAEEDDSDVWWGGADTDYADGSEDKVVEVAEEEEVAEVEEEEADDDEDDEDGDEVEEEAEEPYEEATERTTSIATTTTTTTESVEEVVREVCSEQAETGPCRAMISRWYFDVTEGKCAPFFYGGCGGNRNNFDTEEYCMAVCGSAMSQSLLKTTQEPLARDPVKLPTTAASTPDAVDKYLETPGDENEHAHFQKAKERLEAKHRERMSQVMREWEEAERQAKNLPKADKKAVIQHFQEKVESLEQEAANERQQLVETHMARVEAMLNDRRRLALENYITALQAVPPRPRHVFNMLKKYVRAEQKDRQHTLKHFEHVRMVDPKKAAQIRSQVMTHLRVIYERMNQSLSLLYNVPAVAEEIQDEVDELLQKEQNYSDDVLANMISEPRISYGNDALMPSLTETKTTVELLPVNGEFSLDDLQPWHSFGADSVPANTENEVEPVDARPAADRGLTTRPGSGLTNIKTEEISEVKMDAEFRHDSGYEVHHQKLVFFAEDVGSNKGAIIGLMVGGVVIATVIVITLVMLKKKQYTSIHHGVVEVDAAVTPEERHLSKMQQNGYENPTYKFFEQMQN

Aβ1-42 (fresh, nonaggregated synthetic peptide, rPeptide), sequence (P05067 whole entry, looked up, tested part not stated): as above
fibrillar Aβ1-42, sequence (P05067 whole entry, looked up, tested part not stated): as above
Aβ1-38, sequence (P05067 whole entry, looked up, tested part not stated): as above
high-molecular-weight (MW) Aβ assemblies, sequence (P05067 whole entry, looked up): as the sequence (P05067 whole entry, looked up, tested part not stated) above
Aβ1-40, sequence (P05067 whole entry, looked up, tested part not stated): as above

purified CatB from human liver (Sigma)
SELDI-TOF mass spectrometry of cleavage at pH 7.0 [1]: At neutral pH (˜7.0), the ability of CatB to cleave Aβ, especially nonaggregated (fresh) Aβ, was markedly reduced | proteolytic products analyzed with SELDI-TOF mass spectrometry [1]: Incubating Aβ1-42 with CatB resulted in the dose-dependent generation of Aβ1-40, Aβ1-38, and Aβ1-33 through proteolytic cleavage at Val40-Ile41, Gly38-Gly39, and Gly33-Leu34 | western blot analysis of acid-urea gels [1]: The dose-dependent cleavage of Aβ1-42 was confirmed by western blot analysis of acid-urea gels | western blot of Tricine SDS-PAGE gels [1]: Levels of low-MW Aβ1-42 oligomers and monomers, detected with an antibody specific for Aβ1-42, were also reduced | proteolytic products analyzed with SELDI-TOF mass spectrometry [2]: Levels of Aβ1-40 were increased initially at lower doses (100-400 ng/ml), but decreased at higher doses (0.4-2.5 µg/ml) | western blot of Tricine SDS-PAGE gels [3]: Incubation of CatB induced a marked decrease in the amounts of high-molecular-weight (MW) Aβ assemblies | proteolytic products analyzed with SELDI-TOF mass spectrometry [4]: even when Aβ1-40 was almost completely converted to Aβ1-38, no Aβ1-36 was generated from Aβ1-38 | SELDI-TOF mass spectrometry of cleavage at pH 7.0 [5]: protofibrillar/nonfibrillar Aβ oligomers and fibrillar Aβ1-42 preparations were cleaved by CatB even at neutral pH, resulting in the same truncated Aβ species observed at pH 6.0 | amount of fibrillar structures by electron microscopy [5]: incubation of fibrillar Aβ1-42 with CatB did reduce the amount of fibrillar structures | SELDI-TOF mass spectrometry of cleavage at pH 6.0 [6]: at pH 6.0, were cleaved by CatB as efficiently as nonaggregated preparations, resulting in the same C-terminally-truncated peptides, Aβ1-40, Aβ1-38, and Aβ1-33 | SELDI-TOF mass spectrometry of cleavage at pH 7.0 [6]: protofibrillar/nonfibrillar Aβ oligomers and fibrillar Aβ1-42 preparations were cleaved by CatB even at neutral pH, resulting in the same truncated Aβ species observed at pH 6.0
